Experiment: label from the status in PepcDB records
For “MGLLGIVIALGAMIWLAFRGWSILIIAPAAALLAAATAGEPLLAHWTQTFMGTAAGFVAQFFPLFLLGALFGKLMDDSGSVTAIAEWMTRVLGPQRAMLAVVLAGALLTYGGVSLFVAFFVLAPMAHALFRAADIPPRLMPAAIVLGTSTFTMSALPGTPAIQNAIPMPFFSTTPFAAPGLGIVASAIMLTFGLWWLSQRENAARRRGEGYAIAEEEASPDEVAERPLIRELASTAREFDPAEALQGSRSDEPPAAFIALLPLAVVIVVNLLMSFVVLPRVDADYLGLPEWGATTLQAVSGVWSVIVALTAAILCLIALNFRRLPELRDSMGAGAHAAALPVLSVASLVGFGAVVASLPGFGVVRDWVLSIEGGPLVSLAVATNVLSALTGSASGGLTIALDALGGTYLTRAFDLGIDPAILHRVAVMSAGTLDTLPHNGAVVTLLAVCGATHRESYGGIVMVGIVGPMLALAAVIALGSWVGSF”, the protein production was “failed”. In the case of “MGLPSSLESYLLLILLSFLNVSTIYSSKPSKEEAVLFGGNFPAFYVIGDSLVDPGNNNHLPTMIRANYPPYGSDFEGGKATGRFSNGKTIADYIAIYYKLPLVPAYLGLSDDRKDTISTGMNYASAGCGIRRLTGKIAGKCLSLSKQVDLFEETIEKHLKTNFKTPYELREHLAHSLFMTVIGVNDYAFFYTRLTDANDFADELLHKFLKKIEKLHKLGARKFFINNIKPLGCYPNIVAKTVPRGSRRTYKPCYKHLQRKA”, the protein production is reported as “failed”. With “MGLSSLPGPSEGMLCVILVNTALSISIVKGIVRSFLGIVGISLSPSSSSPSSVTVSSENSSTSESFDFRVCQPESYLEEFRNRTPTLRFESLCRCKKQADNECSVCLSKFQGDSEINKLKCGHLFHKTCLEKWIDYWNITCPLCRTPLVVVPEDHQLSSNVW” the protein production was “failed”. In the case of “MGLTEQKQKHMEQLSDKNGIISALAFDQRGALKRLMAKYQSEEPTVSQIEALKVLVAEELTPYASSMLLDPEYGLPATKVLDDNAGLLLAYEKTGYDTSSTKRLPDCLDIWSAKRIKEEGADAVKFLLYYDVDSSDEVNEEKEAYIERIGSECVAEDIPFFLEILSYDEKITDSSGIEYAKIKPRKVIEAMKVFSNPRFNIDVLKVEVPVNMDYVEGFAQGETAYNKATAAAYFREQDQATLLPYIFLSAGVPAQLFQETLVFAKEAGAKFNGVLCGRATWAGSVKEYVEKGEAGARQWLRTIGFQNIDELNKILQKTATSWKER”, the protein production is reported as “not failed”. With “MGLVGLHSGTIDMEFIGVEDHGDEEGKQIAVSVISSGKNADKTEDPDSLIFTGFGGTDMYHGQPCNQKLERLNIPLEAAFRKKSIVRVVRCMKDEKRTNGNIYIYDGTYMITNRWEEEGQNGFIVFKFKLVREPDQKPAFGIWKSIQNWRNGLSIRPGLILEDLSNGAENLKVCLVNEVDKENGPALFRYVTSLIHEVINNIPSMVDRCACGRRSCGSKHVFREKLSVSSSLVISAKKSGNVARFMNHSCSPNVFWQSIAREQNGLWCLYIGFFAMKHIPPLTELRYDYGKSRGGGKKMCLCRTKKCCGSFG” the protein production was “failed”. With “MGMLTDVALKALKPKEKIYKIADRDGIYVRVMPSGAISFRLDYRLNGRRETIYLGRYGRDGISLALAREKCLDAKRAIGEGRSPAIEKQRDKRRLKEAKSFGEFGEKWLTAAPMADSTRAMRRAIFERELLPVWRNRLLTEITPDDLRTHCGAIVERGAPATAIHVRDILKQIYGFAILHGEKVANPADEVGPASIATFVPKDRSLSPSEIRVMLKQLEHVATIPTIRLGMRLYLLTMVRKSELQDAVWDEVDFENAVWTIPKERMKRSKAHNVYLSRQALDIMIALKTCAGNSRYLLPSRYDADAPMSRATFNRITYAVVERAKANGLPLEPFTVHDLRRTGSTLLNELGFNSDWIEKCLAHEDGRSSRGVYNKAEYEVQRRHMMQEWSDIVDAWVGGKKHVPTLIPPSMPILAPDPAL” the protein production was “failed”. In the case of “MGNHKAALTKQVFTFASELYAYGVREVVISPGSRSTPLALAFEAHPNIKTWIHPDERSAAFFAVGLIKGSERPVAILCTSGTAAANYTPAIAESQISRIPLIVLTSDRPHELRSVGAPQAINQVNMFNNYVSYEFDMPIADDSKETINAIYYQMQIASQYLYGPHKGPIHFNLPFRDPLTPDLNATELLTSEMKILPHY”, the protein production is reported as “failed”. For “MGNIGSPPKFDEYPNGNEEPRRVLRLNVYFDNPVQNKDGAYDDRGGFWAPVDWWHRDAERWATLFAKGMRVAVRGHLERDDWTDGDGEPHTTYKVDARSVGILPYRLDAVHLSPLEHHHHHH”, the protein production was “failed”. With “MGNKITVEVTVYAAIEKVWKYWNEPAHIMKWCQASPEWHVPAAQNDLKAGGTFTTTMAAKDGSMSFDFGGVYDQVKTNDLIEYTIGDGRKVRIVFTHTGDTTNIVESFDPEETNPRELQQSGWQAILNSFKSYTENNLEHHHHHH” the protein production was “not failed”. With “MGNNFAQLKRLINFFRTVILPARISQLILQTFLKWQKDNCMDMGAALAYYALFSLFPICLVMLSIAGRLLGADSNYYLQLISFAQNILPEQPFKVFQQALTNLNQSSFSAGLIGFGILVLTASRIFDALNQSVKKIWSVVHQPKENIGVKHHAFNFIRNKILAFLLVLSTVMVFLLSIFANLAAKIFLTVLAEFGQSIPWVTFDSLGLITTLQTSISYFLITVVIITLFKVLPPVRLQWWDIFPGAILTAATMMALQNAVGSGIIRIGENLQAYGVVGNVMVLLLWIYLIFQVFFIGCEFTFVFTYIFGSRHQKEKPF” the protein production was “failed”. In the case of “MGPDGPPCEISTWKHNSMKQIALSLFVIAASGAYVWDQAGKNPANDMLGEALPADAAEAPTVQPKEPASAAALPVLRTSPAPLDPRFRTRLPIARETTAGIAVPAERPNDPVKQTVVPVAPQPSPAPPAQPVTPAVTDPASSTPSFAVTPAIYIPVPQPRPAYPNAPVRVVRVGMKPAAHGYADGVYTGPTADAYYGIIQIQALVQGGQLTALKVLKYPSDRRTSVNINRQALPMLRDEAISAQSADVDIISGATLTSRAFIQSLRGALKKASSLEHHHHHH”, the protein production is reported as “failed”. In the case of “MGPMRTLTVAIDWILIILFVISIILLIYALVKKNKKMAKYAGIAAAIIFILLFIAMRFALTVKPGQ”, the protein production is reported as “failed”. With “MGPQRRLRPHEPWPTRSQPGSPAAAESSFLPSVSLLSWKLGDSAMSENRKLAAILAADVVGYSRLAGADEDLTLARLRTLRSDLIDPTIAVHHGRVVKRTGDGALVEFRSVVDAVRCAIEVQNGMVERNHGVPQDRRIEFRIGIHLGDVVEESDGDLMGDGVNIASRLEGVAAAGAICLSEDAYRQVKARLDLSVNDLGSTQLKNIAEPIRVYSLQVGSAGTKLAASPETAVSQPATAAPPKLSIAVLPFTNMSGDAEQDYFADGISEDIITALSKLSQLFVIARNSSFTFKGKNVHVQEVGTKLGVRHVLEGSVRKSGNRVRITAQLIDATTGGHLWAERFDRDLTDIFAVQDDVTQQIVGALAVNLTEGDRQRLAPGQTRHPEAYDCFLRGRELWHRLTRQTNSDARDLLQRAVDLDPNFASAHAFLALTHGLDYLNRWSALPQRSLEQAEEVATLAVARDDSDPVAHWALSLVSLYLRQHDRAISEAERAIVLNPNFAEGHVSLGEALIYSGRSGEALAYFDRASVLNPYFPDIVLHFQALALFQLGRYEEAVELLLQRVSRNPVTDVSRALLAACYGHLGRFEEARATWQEVMRVNPDYSLEYRRKVLPFKNPADFELVVEGLRKAGVVQ” the protein production was “failed”. For “MGQKKYVELSKDIFIFSYLCGGINFTDIANLTQENIVNGRLHYIRQKTGKLIKIGIPQEAMQIIKKYTDESNGYLFPILNVKVHKTALQKQNRIHKIRGKVNDILKTLGKRLGIEANITTYVARHSFASVLKKSGVNIALISEALGHSDLATTQIYLDSFDNEQVDEAMKNLLEHHHHHH”, the protein production was “not failed”. With “MGQPSDLTESTLRFSSLDPLHPPVISQLTAIAKRIRRNSLHLPTIWQEAVDSIGSTLGVSRCLLLTKDFQSRHLQIEAEFCQPTVTAFAALIVPEESEIWRQLFEQHQPITLYNVQFQGEDLGGLWIFPTLYQDQANGYLCLQQVGPAPGPWHPETEALLQELAEQTGTAIAHATLYQELTQATKAAEEASRLKSEFLASTTHELRTPLNGIIGFLRLILDDMADSEAEKHEFVEEAYQSALLLLNLINDILDLAKIEAGRVGIELEVVDFSEVLQATENFALPQAQNKGLSFNLTAPNQGPLLVYGNQRWLLQVMLNIVGNAIKFTHEGGITVAVEVMPRTVLWEGVQKPGLLKVSVGDTGIGVSLEQQSKLFKKFVQIDGSHSKAYGGTGLGLVISQKLVETMGGKVAFFSMGEGLGSTVTFTVLLEELP” the protein production was “failed”.

Reference: a protein production outcome set (Wang et al. 2014)
